How the values were obtained:
[1] = HPLC analysis of GLP-1 on C18 column (chemical stability); type: physicochemical
Experimental: An investigation method for chemical stability: a test sample was taken, and analyzed on a C18 column (3.5 μm, 300 Å, φ 4.6×50 mm). An analytical method: mobile phase A was 0.1% trifluoroacetic acid, B was the A phase with 80% acetonitrile added therein, the detection wavelength was 280 nm, 60% A and 40% B were balanced for 3 min, and the sample amount was 2 to 5 μL. Elution was performed with linear gradient for 8 min with 40% to 53% of the B phase and 60% to 47% of the A phase. Peak area was calculated using the normalization method. A standard sample was determined with the same method. The peptide concentration in the sample was calculated by comparison with the standard sample, and compared with the determination result at day 0, to calculate the retention of the peptide content in the sample. A higher retention of the peptide content indicated better chemical stability.
The HPLC detection method was performed according to Example 1.
The formulation method and HPLC detection method of the pharmaceutical compositions were performed according to Example 5.

[2] = Thioflavine T fluorescence value (gelatination, physical stability); type: physicochemical; conditions: 35 days
Experimental: A monitoring method for physical stability of the pH value was the fluorescence value, that is, thioflavine T was added into the sample at a final concentration of 5 μmol/L, then the fluorescence absorption value was determined (at an excitation wavelength of 435 nm, and an emission wavelength of 485 nm). The higher the absorption value is, the severer the gelatination phenomena of the sample is, and the poorer the physical stability is.

Substance: Glucagon-like peptide 1 [GLP-1]
- Results of HPLC analysis, retention of the peptide content ([1]; pH 3.5, NaCl 8.77 mg/mL, 35° C., 8 days): 98.06%
- Results of HPLC analysis, retention of the peptide content ([1]; pH 3.5, NaCl 8.77 mg/mL, 45° C., 8 days): 92.90%
- Results of HPLC analysis, retention of the peptide content ([1]; pH 3.6, NaCl below 20 mmol/L, 25° C., 30 days): 93.04%
- Results of HPLC analysis, retention of the peptide content ([1]; pH 3.6, NaCl below 20 mmol/L, 35° C., 30 days): 86.25%
- Results of HPLC analysis, retention of the peptide content ([1]; pH 3.7, NaCl below 20 mmol/L, 25° C., 30 days): 95.15%
- Results of HPLC analysis, retention of the peptide content ([1]; pH 3.7, NaCl below 20 mmol/L, 35° C., 30 days): 86.11%
- Results of HPLC analysis, retention of the peptide content ([1]; pH 3.8, NaCl below 20 mmol/L, 25° C., 30 days): 97.10%
- Results of HPLC analysis, retention of the peptide content ([1]; pH 3.8, NaCl below 20 mmol/L, 35° C., 30 days): 89.48%
- Results of HPLC analysis, retention of the peptide content ([1]; pH 3.9, NaCl below 20 mmol/L, 25° C., 30 days): 98.08%
- Results of HPLC analysis, retention of the peptide content ([1]; pH 3.9, NaCl below 20 mmol/L, 35° C., 30 days): 90.36%
- Results of HPLC analysis, retention of the peptide content ([1]; pH 4.0, NaCl 0 mg/mL, 35° C., 8 days): 96.07%
- Results of HPLC analysis, retention of the peptide content ([1]; pH 4.0, NaCl 0 mg/mL, 45° C., 8 days): 92.77%
- Results of HPLC analysis, retention of the peptide content ([1]; pH 4.0, NaCl 1.17 mg/mL, 35° C., 8 days): 97.43%
- Results of HPLC analysis, retention of the peptide content ([1]; pH 4.0, NaCl 1.17 mg/mL, 45° C., 8 days): 93.76%
- Results of HPLC analysis, retention of the peptide content ([1]; pH 4.0, NaCl 8.77 mg/mL, 35° C., 8 days): 98.73%
- Results of HPLC analysis, retention of the peptide content ([1]; pH 4.0, NaCl 8.77 mg/mL, 45° C., 8 days): Turbid
- Results of HPLC analysis, retention of the peptide content ([1]; pH 4.0, NaCl below 20 mmol/L, 25° C., 30 days): 97.85%
- Results of HPLC analysis, retention of the peptide content ([1]; pH 4.0, NaCl below 20 mmol/L, 35° C., 30 days): 91.80%
- Results of HPLC analysis, retention of the peptide content ([1]; pH 4.1, NaCl below 20 mmol/L, 25° C., 30 days): 98.90%
- Results of HPLC analysis, retention of the peptide content ([1]; pH 4.1, NaCl below 20 mmol/L, 35° C., 30 days): 91.35%
- Results of HPLC analysis, retention of the peptide content ([1]; pH 4.2, NaCl below 20 mmol/L, 25° C., 30 days): 98.24%
- Results of HPLC analysis, retention of the peptide content ([1]; pH 4.2, NaCl below 20 mmol/L, 35° C., 30 days): 93.96%
- Results of HPLC analysis, retention of the peptide content ([1]; pH 4.5, NaCl 0 mg/mL, 35° C., 8 days): 97.23%
- Results of HPLC analysis, retention of the peptide content ([1]; pH 4.5, NaCl 0 mg/mL, 45° C., 8 days): 92.45%
- Results of HPLC analysis, retention of the peptide content ([1]; pH 4.5, NaCl 1.17 mg/mL, 35° C., 8 days): 95.29%
- Results of HPLC analysis, retention of the peptide content ([1]; pH 4.5, NaCl 1.17 mg/mL, 45° C., 8 days): Turbid
- Results of HPLC analysis, retention of the peptide content ([1]; pH 4.5, NaCl 8.77 mg/mL, 35° C., 8 days): Turbid
- Results of HPLC analysis, retention of the peptide content ([1]; pH 4.5, NaCl 8.77 mg/mL, 45° C., 8 days): Turbid
- Results of HPLC analysis, retention of the peptide content ([1]; pH 7.0, NaCl 0 mg/mL, 35° C., 8 days): 94.30%
- Results of HPLC analysis, retention of the peptide content ([1]; pH 7.0, NaCl 0 mg/mL, 45° C., 8 days): 88.83%
- Results of HPLC analysis, retention of the peptide content ([1]; pH 7.0, NaCl 1.17 mg/mL, 35° C., 8 days): 93.35%
- Results of HPLC analysis, retention of the peptide content ([1]; pH 7.0, NaCl 1.17 mg/mL, 45° C., 8 days): 90.43%
- Results of HPLC analysis, retention of the peptide content ([1]; pH 7.0, NaCl 8.77 mg/mL, 35° C., 8 days): 94.34%
- Results of HPLC analysis, retention of the peptide content ([1]; pH 7.0, NaCl 8.77 mg/mL, 45° C., 8 days): 92.79%
- Results of HPLC analysis, retention of the peptide content ([1]; pH 7.0, NaCl 29.22 mg/mL, 35° C., 8 days): 95.83%
- Results of HPLC analysis, retention of the peptide content ([1]; pH 7.0, NaCl 29.22 mg/mL, 45° C., 8 days): 95.37%
- chemical stability ([1]; pH 7.0 to 7.5): poor
- Results of HPLC analysis, retention of the peptide content ([1]; pH 7.5, NaCl 0 mg/mL, 35° C., 8 days): 90.89%
- Results of HPLC analysis, retention of the peptide content ([1]; pH 7.5, NaCl 1.17 mg/mL, 35° C., 8 days): 91.88%
- Results of HPLC analysis, retention of the peptide content ([1]; pH 7.5, NaCl 1.17 mg/mL, 45° C., 8 days): 85.88%
- Results of HPLC analysis, retention of the peptide content ([1]; pH 7.5, NaCl 8.77 mg/mL, 35° C., 8 days): 92.15%
- Results of HPLC analysis, retention of the peptide content ([1]; pH 7.5, NaCl 8.77 mg/mL, 45° C., 8 days): 87.48%
- Results of HPLC analysis, retention of the peptide content ([1]; pH 7.5, NaCl 29.22 mg/mL, 35° C., 8 days): 93.74%
- Results of HPLC analysis, retention of the peptide content ([1]; pH 7.5, NaCl 29.22 mg/mL, 45° C., 8 days): 88.04%
- chemical instability ([1]; pH value lower than about 3.5): acid hydrolysis
- Fluorescence value ([2]; pH 3.6, NaCl below 20 mmol/L, 35° C.): 9.95
- Fluorescence value ([2]; pH 3.7, NaCl below 20 mmol/L, 25° C.): 9.11
- Fluorescence value ([2]; pH 3.7, NaCl below 20 mmol/L, 35° C.): 14.55
- Fluorescence value ([2]; pH 3.8, NaCl below 20 mmol/L, 25° C.): 11.01
- Fluorescence value ([2]; pH 3.8, NaCl below 20 mmol/L, 35° C.): 31.58
- Fluorescence value ([2]; pH 3.9, NaCl below 20 mmol/L, 25° C.): 26.46
- Fluorescence value ([2]; pH 3.9, NaCl below 20 mmol/L, 35° C.): 78.27
- Fluorescence value ([2]; pH 4.0, NaCl below 20 mmol/L, 25° C.): 59.32
- Fluorescence value ([2]; pH 4.0, NaCl below 20 mmol/L, 35° C.): 113.18
- Fluorescence value ([2]; pH 4.1, NaCl below 20 mmol/L, 25° C.): 139.48
- Fluorescence value ([2]; pH 4.1, NaCl below 20 mmol/L, 35° C.): 157.00

— US20160235855A1, “STABLE AQUEOUS PARENTERAL PHARMACEUTICAL COMPOSITIONS OF INSULINOTROPIC PEPTIDES” (SHANGHAI BENEMAE PHARMACEUTICAL CORPORATION, priority 2013, published 2016)
